{"source": "patent US20250027945A1", "key": {"[1]": {"molecular_target": "human RYK on the surface of human tumor cell lines (human) (UniProt P34925)", "sequence (P34925 46-607 limits assumed, form in doubt)": "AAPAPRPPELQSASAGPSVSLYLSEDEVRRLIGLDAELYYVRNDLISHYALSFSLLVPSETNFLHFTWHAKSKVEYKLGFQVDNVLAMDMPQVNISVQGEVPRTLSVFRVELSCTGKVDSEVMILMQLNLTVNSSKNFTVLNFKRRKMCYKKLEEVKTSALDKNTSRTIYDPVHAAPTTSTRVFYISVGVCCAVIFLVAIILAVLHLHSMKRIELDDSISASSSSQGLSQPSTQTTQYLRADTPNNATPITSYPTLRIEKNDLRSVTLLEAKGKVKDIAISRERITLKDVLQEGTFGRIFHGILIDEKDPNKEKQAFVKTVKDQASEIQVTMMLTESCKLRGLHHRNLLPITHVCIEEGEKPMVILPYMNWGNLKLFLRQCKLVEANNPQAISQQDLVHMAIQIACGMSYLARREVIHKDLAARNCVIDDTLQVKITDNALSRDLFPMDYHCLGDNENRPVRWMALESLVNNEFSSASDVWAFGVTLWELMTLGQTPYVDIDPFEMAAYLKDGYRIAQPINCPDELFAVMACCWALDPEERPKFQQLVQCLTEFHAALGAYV", "test": "flow cytometry, MINO cells (mantle), isotype matched control mAb, equal amount"}, "[2]": {"molecular_target": "human RYK on the surface of human tumor cell lines (human) (UniProt P34925)", "test": "flow cytometry of dissociated primary triple-negative breast cancer PDX cells M0026 (T1), fluorochrome-conjugated isotype control mAb; count 15903"}, "[3]": {"molecular_target": "human RYK on the surface of human tumor cell lines (human) (UniProt P34925)", "test": "flow cytometry, MCF7 cells (breast), isotype matched control mAb, equal amount"}, "[4]": {"molecular_target": "human RYK on the surface of human tumor cell lines (human) (UniProt P34925)", "test": "flow cytometry, HT29 cells (colon), isotype matched control mAb, equal amount"}, "[5]": {"molecular_target": "human RYK on the surface of human tumor cell lines (human) (UniProt P34925)", "test": "flow cytometry, SH-SY5Y cells (brain), isotype matched control mAb, equal amount"}, "[6]": {"molecular_target": "human RYK on the surface of human tumor cell lines (human) (UniProt P34925)", "test": "flow cytometry, MEC1 cells (CLL), isotype matched control mAb, equal amount"}, "[7]": {"molecular_target": "human RYK on the surface of human tumor cell lines (human) (UniProt P34925)", "test": "flow cytometry, JEKO cells (mantle), isotype matched control mAb, equal amount"}, "[8]": {"molecular_target": "human RYK on the surface of human tumor cell lines (human) (UniProt P34925)", "test": "flow cytometry, HELA cells (ovarian as printed), isotype matched control mAb, equal amount"}, "[9]": {"molecular_target": "human RYK on the surface of human tumor cell lines (human) (UniProt P34925)", "test": "flow cytometry, SK-OV-3 cells (ovarian), isotype matched control mAb, equal amount"}, "[10]": {"molecular_target": "human RYK on the surface of human tumor cell lines (human) (UniProt P34925)", "test": "flow cytometry, T24 cells (bladder), isotype matched control mAb, equal amount"}, "[11]": {"molecular_target": "human RYK on the surface of human tumor cell lines (human) (UniProt P34925)", "test": "flow cytometry, A673 cells (Ewings sarcoma), isotype matched control mAb, equal amount"}, "[12]": {"molecular_target": "human RYK on the surface of human tumor cell lines (human) (UniProt P34925)", "test": "flow cytometry, NALM6 cells (ALL), isotype matched control mAb, equal amount"}, "[13]": {"molecular_target": "human RYK on the surface of human tumor cell lines (human) (UniProt P34925)", "test": "flow cytometry, CAPAN-2 cells (pancreas), isotype matched control mAb, equal amount"}, "[14]": {"molecular_target": "human RYK on the surface of human tumor cell lines (human) (UniProt P34925)", "test": "flow cytometry, SW620 cells (colon), isotype matched control mAb, equal amount"}, "[15]": {"molecular_target": "human RYK on the surface of human tumor cell lines (human) (UniProt P34925)", "test": "flow cytometry, H292 cells (lung), isotype matched control mAb, equal amount"}, "[16]": {"molecular_target": "human RYK on the surface of human tumor cell lines (human) (UniProt P34925)", "test": "flow cytometry, NCI H226 cells (lung), isotype matched control mAb, equal amount"}, "[17]": {"molecular_target": "human RYK on the surface of human tumor cell lines (human) (UniProt P34925)", "test": "flow cytometry, NCI H1155 cells (lung), isotype matched control mAb, equal amount"}, "[18]": {"molecular_target": "human RYK on the surface of human tumor cell lines (human) (UniProt P34925)", "test": "flow cytometry, OVCAR4 cells (ovarian), isotype matched control mAb, equal amount"}, "[19]": {"molecular_target": "human RYK on the surface of human tumor cell lines (human) (UniProt P34925)", "test": "flow cytometry, H446 cells (lung), isotype matched control mAb, equal amount"}, "[20]": {"molecular_target": "human RYK on the surface of human tumor cell lines (human) (UniProt P34925)", "test": "flow cytometry, DU-145 cells (prostate), isotype matched control mAb, equal amount"}, "[21]": {"molecular_target": "human RYK on the surface of human tumor cell lines (human) (UniProt P34925)", "test": "flow cytometry, RAMOS cells (Burkitt NHL), isotype matched control mAb, equal amount"}, "[22]": {"molecular_target": "human RYK on the surface of human tumor cell lines (human) (UniProt P34925)", "test": "flow cytometry, EW36 cells (NHL), isotype matched control mAb, equal amount"}, "[23]": {"molecular_target": "human RYK on the surface of human tumor cell lines (human) (UniProt P34925)", "test": "flow cytometry, SK-MES-1 cells (lung), isotype matched control mAb, equal amount"}, "[24]": {"molecular_target": "human RYK on the surface of human tumor cell lines (human) (UniProt P34925)", "test": "flow cytometry, JURKAT cells (T-cell ALL), isotype matched control mAb, equal amount"}, "[25]": {"molecular_target": "human RYK on the surface of human tumor cell lines (human) (UniProt P34925)", "test": "flow cytometry, MDA-MB-231 cells (breast), isotype matched control mAb, equal amount"}, "[26]": {"molecular_target": "human RYK on the surface of human tumor cell lines (human) (UniProt P34925)", "test": "flow cytometry, NCI H929 cells (melanoma as printed), isotype matched control mAb, equal amount"}, "[27]": {"molecular_target": "human RYK on the surface of human tumor cell lines (human) (UniProt P34925)", "test": "flow cytometry, BT549 cells (breast), isotype matched control mAb, equal amount"}, "[28]": {"molecular_target": "human RYK on the surface of human tumor cell lines (human) (UniProt P34925)", "test": "flow cytometry, REH cells (ALL), isotype matched control mAb, equal amount"}, "[29]": {"molecular_target": "human RYK on the surface of human tumor cell lines (human) (UniProt P34925)", "test": "flow cytometry, T47-D cells (breast), isotype matched control mAb, equal amount"}, "[30]": {"molecular_target": "human RYK on the surface of human tumor cell lines (human) (UniProt P34925)", "test": "flow cytometry, SW948 cells (colon), isotype matched control mAb, equal amount"}, "[31]": {"molecular_target": "human RYK on the surface of human tumor cell lines (human) (UniProt P34925)", "test": "flow cytometry, MOLT4 cells (T-cell ALL), isotype matched control mAb, equal amount"}, "[32]": {"molecular_target": "human RYK on the surface of human tumor cell lines (human) (UniProt P34925)", "test": "flow cytometry, H460 cells (lung), isotype matched control mAb, equal amount"}, "[33]": {"molecular_target": "human RYK on the surface of human tumor cell lines (human) (UniProt P34925)", "test": "flow cytometry, K562 cells (CML), isotype matched control mAb, equal amount"}, "[34]": {"molecular_target": "human RYK on the surface of human tumor cell lines (human) (UniProt P34925)", "test": "flow cytometry, HT144 cells (skin), isotype matched control mAb, equal amount"}, "[35]": {"molecular_target": "human RYK on the surface of human tumor cell lines (human) (UniProt P34925)", "test": "flow cytometry, HS-578T cells (breast), isotype matched control mAb, equal amount"}, "[36]": {"molecular_target": "human RYK on the surface of human tumor cell lines (human) (UniProt P34925)", "test": "flow cytometry, RAJI cells (Burkitt NHL), isotype matched control mAb, equal amount"}, "[37]": {"molecular_target": "human RYK on the surface of human tumor cell lines (human) (UniProt P34925)", "test": "flow cytometry, A549 cells (lung), isotype matched control mAb, equal amount"}, "[38]": {"molecular_target": "human RYK on the surface of human tumor cell lines (human) (UniProt P34925)", "test": "flow cytometry, SK-MEL-2 cells (skin), isotype matched control mAb, equal amount"}, "[39]": {"molecular_target": "human RYK on the surface of human tumor cell lines (human) (UniProt P34925)", "test": "flow cytometry, U937 cells (monocyte cancer), isotype matched control mAb, equal amount"}, "[40]": {"molecular_target": "human RYK on the surface of human tumor cell lines (human) (UniProt P34925)", "test": "flow cytometry, SKBR3 cells (breast), isotype matched control mAb, equal amount"}, "[41]": {"molecular_target": "human RYK on the surface of human tumor cell lines (human) (UniProt P34925)", "test": "flow cytometry, CAPAN-1 cells (pancreas), isotype matched control mAb, equal amount"}, "[42]": {"molecular_target": "human RYK on the surface of human tumor cell lines (human) (UniProt P34925)", "test": "flow cytometry, COLO 829 cells (melanoma), isotype matched control mAb, equal amount"}, "[43]": {"molecular_target": "human RYK on the surface of human tumor cell lines (human) (UniProt P34925)", "test": "flow cytometry, PC3 cells (prostate), isotype matched control mAb, equal amount"}, "[44]": {"molecular_target": "human RYK on the surface of human tumor cell lines (human) (UniProt P34925)", "test": "flow cytometry, HS683 cells (brain), isotype matched control mAb, equal amount"}}, "data": [{"substance": "isotype matched control mAb (antibody)", "values": [{"measurement": "MFI", "setting": "[1]", "value": 7.6}, {"measurement": "Median : Comp-Alexa Fluor 647-A", "setting": "[2]", "value": 39.9}, {"measurement": "MFI", "setting": "[3]", "value": 5.2}, {"measurement": "MFI", "setting": "[4]", "value": 100}, {"measurement": "MFI", "setting": "[5]", "value": 4.1}, {"measurement": "MFI", "setting": "[6]", "value": 4.3}, {"measurement": "MFI", "setting": "[7]", "value": 3.9}, {"measurement": "MFI", "setting": "[8]", "value": 6.1}, {"measurement": "MFI", "setting": "[9]", "value": 5.6}, {"measurement": "MFI", "setting": "[10]", "value": 72.6}, {"measurement": "MFI", "setting": "[11]", "value": 52}, {"measurement": "MFI", "setting": "[12]", "value": 5.7}, {"measurement": "MFI", "setting": "[13]", "value": 4.7}, {"measurement": "MFI", "setting": "[14]", "value": 5.6}, {"measurement": "MFI", "setting": "[15]", "value": 107}, {"measurement": "MFI", "setting": "[16]", "value": 6}, {"measurement": "MFI", "setting": "[17]", "value": 6.2}, {"measurement": "MFI", "setting": "[18]", "value": 61}, {"measurement": "MFI", "setting": "[19]", "value": 23.3}, {"measurement": "MFI", "setting": "[20]", "value": 3.2}, {"measurement": "MFI", "setting": "[21]", "value": 6.1}, {"measurement": "MFI", "setting": "[22]", "value": 5.6}, {"measurement": "MFI", "setting": "[23]", "value": 156}, {"measurement": "MFI", "setting": "[24]", "value": 5.7}, {"measurement": "MFI", "setting": "[25]", "value": 8.3}, {"measurement": "MFI", "setting": "[26]", "value": 43.8}, {"measurement": "MFI", "setting": "[27]", "value": 197}, {"measurement": "MFI", "setting": "[28]", "value": 7.4}, {"measurement": "MFI", "setting": "[29]", "value": 25.7}, {"measurement": "MFI", "setting": "[30]", "value": 30.7}, {"measurement": "MFI", "setting": "[31]", "value": 5.1}, {"measurement": "MFI", "setting": "[32]", "value": 58}, {"measurement": "MFI", "setting": "[33]", "value": 2.8}, {"measurement": "MFI", "setting": "[34]", "value": 126}, {"measurement": "MFI", "setting": "[35]", "value": 7.3}, {"measurement": "MFI", "setting": "[36]", "value": 6.4}, {"measurement": "MFI", "setting": "[37]", "value": 4.8}, {"measurement": "MFI", "setting": "[38]", "value": 7}, {"measurement": "MFI", "setting": "[39]", "value": 6.7}, {"measurement": "MFI", "setting": "[40]", "value": 73.9}, {"measurement": "MFI", "setting": "[41]", "value": 86.9}, {"measurement": "MFI", "setting": "[42]", "value": 6.9}, {"measurement": "MFI", "setting": "[43]", "value": 2.8}, {"measurement": "MFI", "setting": "[44]", "value": 229}]}]}
